IntAct's records for PubMed 22562154

B1: Importin subunit beta-5 (Saccharomyces cerevisiae), P53067 (parent)
chain: MDINELIIGAQSADKHTREVAETQLLQWCDSDASQVFKALANVALQHEASLESRQFALLSLRKLITMYWSPGFESYRSTSNVEIDVKDFIREVLLKLCLNDNENTKIKNGASYCIVQISAVDFPDQWPQLLTVIYDAISHQHSLNAMSLLNEIYDDVVSEEMFFEGGIGLATMEIVFKVLNTETSTLIAKIAALKLLKACLLQMSSHNEYDEASRKSFVSQCLATSLQILGQLLTLNFGNVDVISQLKFKSIIYENLVFIKNDFSRKHFSSELQKQFKIMAIQDLENVTHINANVETTESEPLLETVHDCSIYIVEFLTSVCTLQFSVEEMNKIITSLTILCQLSSETREIWTSDFNTFVSKETGLAASYNVRDQANEFFTSLPNPQLSLIFKVVSNDIEHSTCNYSTLESLLYLLQCILLNDDEITGENIDQSLQILIKTLENILVSQEIPELILARAILTIPRVLDKFIDALPDIKPLTSAFLAKSLNLALKSDKELIKSATLIAFTYYCYFAELDSVLGPEVCSETQEKVIRIINQVSSDAEEDTNGALMEVLSQVISYNPKEPHSRKEILQAEFHLVFTISSEDPANVQVVVQSQECLEKLLDNINMDNYKNYIELCLPSFINVLDSNNANNYRYSPLLSLVLEFITVFLKKKPNDGFLPDEINQYLFEPLAKVLAFSTEDETLQLATEAFSYLIFNTDTRAMEPRLMDIMKVLERLLSLEVSDSAAMNVGPLVVAIFTRFSKEIQPLIGRILEAVVVRLIKTQNISTEQNLLSVLCFLTCNDPKQTVDFLSSFQIDNTDALTLVMRKWIEAFEVIRGEKRIKENIVALSNLFFLNDKRLQKVVVNGNLIPYEGDLIITRSMAKKMPDRYVQVPLYTKIIKLFVSELSFQSKQPNPEQLITSDIKQEVVNANKDDDNDDWEDVDDVLDYDKLKEYIDDDVDEEADDDSDDITGLMDVKESVVQLLVRFFKEVASKDVSGFHCIYETLSDSERKVLSEALL

Variants of: B1
Details: with gsp1_yeast GSP1, P32835

Row | Variant | effect of a mutation on the interaction
1 | K909R | decreasing interaction
